Results: article PMC3773174

Target: Sso1pHT (yeast t-SNARE Sso1p without the Habc domain), labelled with Cy5 (yeast)
Test: FRET or BRET

FRET efficiency of the single protein-protein complex (H): 0.96
Substance: Snc2p (yeast v-SNARE), labelled with Cy3 (from UniProt P33328 1-115) (natural protein)
